“Also recorded” adds a separate entry of the source.
T1: TAP1/TAP2iso heterodimer (Homo sapiens, UniProt Q03518+Q03519)
T1 construct: expressed in transfected cells
T1 sequence (Q03519 1-653 isoform Q03519-2 L359K/V379I): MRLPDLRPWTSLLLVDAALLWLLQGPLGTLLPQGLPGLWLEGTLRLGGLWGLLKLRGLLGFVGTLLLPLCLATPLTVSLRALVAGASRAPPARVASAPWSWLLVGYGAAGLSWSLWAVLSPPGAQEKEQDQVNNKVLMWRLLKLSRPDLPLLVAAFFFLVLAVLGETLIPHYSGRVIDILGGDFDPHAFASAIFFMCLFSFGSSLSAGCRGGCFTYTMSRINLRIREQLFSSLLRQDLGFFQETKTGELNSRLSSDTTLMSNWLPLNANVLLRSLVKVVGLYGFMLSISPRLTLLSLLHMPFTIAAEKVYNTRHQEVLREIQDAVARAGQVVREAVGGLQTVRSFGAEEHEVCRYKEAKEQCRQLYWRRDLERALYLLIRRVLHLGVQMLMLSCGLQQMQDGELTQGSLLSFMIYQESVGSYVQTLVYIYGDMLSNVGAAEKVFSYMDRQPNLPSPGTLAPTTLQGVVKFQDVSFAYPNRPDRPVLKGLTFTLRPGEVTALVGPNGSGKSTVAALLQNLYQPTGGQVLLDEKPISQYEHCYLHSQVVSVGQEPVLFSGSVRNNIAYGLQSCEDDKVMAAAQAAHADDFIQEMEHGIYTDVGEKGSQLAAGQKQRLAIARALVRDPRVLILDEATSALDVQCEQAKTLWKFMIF
T1 sequence (Q03518 1-748): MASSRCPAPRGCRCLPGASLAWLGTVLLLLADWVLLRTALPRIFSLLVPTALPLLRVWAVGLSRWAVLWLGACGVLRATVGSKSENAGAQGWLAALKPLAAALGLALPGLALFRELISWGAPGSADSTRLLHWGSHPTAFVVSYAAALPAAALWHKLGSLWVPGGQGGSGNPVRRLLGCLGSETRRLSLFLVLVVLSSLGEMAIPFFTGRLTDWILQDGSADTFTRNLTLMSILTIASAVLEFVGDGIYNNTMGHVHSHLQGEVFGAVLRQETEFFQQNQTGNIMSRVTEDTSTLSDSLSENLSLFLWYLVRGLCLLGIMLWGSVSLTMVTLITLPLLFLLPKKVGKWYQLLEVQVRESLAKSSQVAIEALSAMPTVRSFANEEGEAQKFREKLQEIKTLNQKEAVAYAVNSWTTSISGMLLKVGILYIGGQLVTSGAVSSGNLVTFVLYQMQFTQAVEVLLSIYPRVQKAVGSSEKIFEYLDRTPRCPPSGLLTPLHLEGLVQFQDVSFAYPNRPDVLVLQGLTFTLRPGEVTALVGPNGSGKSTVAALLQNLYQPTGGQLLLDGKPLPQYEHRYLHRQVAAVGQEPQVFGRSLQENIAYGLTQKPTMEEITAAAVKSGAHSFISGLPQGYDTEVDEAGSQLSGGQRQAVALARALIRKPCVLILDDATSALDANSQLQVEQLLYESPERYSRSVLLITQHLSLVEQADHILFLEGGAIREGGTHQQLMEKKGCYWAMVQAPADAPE

B1: TAP1: known TAP1 subunit (TAP1 A allele cDNA) (protein)
chain: T1 sequence (Q03518 1-748)
B2: TAP1/TAP2iso: novel TAP heterodimer of TAP1 and splice variant TAP2iso, expressed from transfected cDNAs (protein)
chain 1: T1 sequence (Q03518 1-748)
chain 2: T1 sequence (Q03519 1-653 isoform Q03519-2 L359K/V379I)
B3: TAP1/TAP2: previously known TAP transporter, heterodimer of the TAP1 and TAP2 gene products (protein)
chain 1: T1 sequence (Q03518 1-748)
chain 2: MRLPDLRPWTSLLLVDAALLWLLQGPLGTLLPQGLPGLWLEGTLRLGGLWGLLKLRGLLGFVGTLLLPLCLATPLTVSLRALVAGASRAPPARVASAPWSWLLVGYGAAGLSWSLWAVLSPPGAQEKEQDQVNNKVLMWRLLKLSRPDLPLLVAAFFFLVLAVLGETLIPHYSGRVIDILGGDFDPHAFASAIFFMCLFSFGSSLSAGCRGGCFTYTMSRINLRIREQLFSSLLRQDLGFFQETKTGELNSRLSSDTTLMSNWLPLNANVLLRSLVKVVGLYGFMLSISPRLTLLSLLHMPFTIAAEKVYNTRHQEVLREIQDAVARAGQVVREAVGGLQTVRSFGAEEHEVCRYKEAKEQCRQLYWRRDLERALYLLIRRVLHLGVQMLMLSCGLQQMQDGELTQGSLLSFMIYQESVGSYVQTLVYIYGDMLSNVGAAEKVFSYMDRQPNLPSPGTLAPTTLQGVVKFQDVSFAYPNRPDRPVLKGLTFTLRPGEVTALVGPNGSGKSTVAALLQNLYQPTGGQVLLDEKPISQYEHCYLHSQVVSVGQEPVLFSGSVRNNIAYGLQSCEDDKVMAAAQAAHADDFIQEMEHGIYTDVGEKGSQLAAGQKQRLAIARALVRDPRVLILDEATSALDVQCEQALQDWNSRGDRTVLVIAHRLQTVQRAHQILVLQEGKLQKLAQL

Legend:
TAP1/TAP2iso heterodimer = molecular target: T1, TAP1/TAP2iso heterodimer; test: competition with transport of 125I-Peptide RRYQNSTEL in TAP1/TAP2iso transfectants; type: cell-based; conditions: unlabeled competitor peptide; comparison in words
Method: (§1) Glycosylated ^125 I Peptide […] (SEQ ID NO: 6), Peptide […] (SEQ ID NO: 7), or Peptide […] (SEQ ID NO: 8) was recovered and measured. The peptide translocation assay was performed essentially as previously described (Neefjes et al., Science, 261:769 (1993); and Momburg et al., J. Exp. Med., 179:1613 (1994)). Briefly, 2.5-5.0×10^6 T2 cell (transfected or untransfected) were washed once with incubation buffer (130 mM KCl, 10 mM NaCl, 1 mM CaC2, 2 mM EDTA, 2 mM MgCl2, 5 mM Hepes, pH 7.3) and permeabilized for 10 minutes at 37° C. with streptolysin O (2 IU/ml) (Wellcome, Beckenham, UK) in 50 μl of incubation buffer. After further addition of 10 μl of 100 mM adenosine triphosphate, 10 μl of ^125 I-labeled peptide (~15 pM), and 30 μl of incubation buffer, cells were incubated for an additional 10 minutes at 37° C. Transport was terminated by the addition of 1 ml of 1% NP-40 detergent, after which nuclei were removed by centrifugation and glycosylated peptides were recovered using concanavalin A-Sepharose (Sigma, St. Louis, Mo.) and quantitated with a gamma counter (LKB-Wallac).
Differential peptide selectivity of the TAP1/TAP2 and TAP1/TAP2iso heterodimers was further investigated by competition experiments with ^125 I-labeled Peptide […] (SEQ ID NO: 6) and various unlabeled peptides: Peptide […] (SEQ ID NO: 6); Peptide […] (SEQ ID NO: 7); Peptide […] (SEQ ID NO: 8); Peptide […] (SEQ ID NO: 9), the S1-24 fragment of human adrenocorticotropic hormone); and Peptide […] (SEQ ID NO: 10), residues 22 to 30 (human insulin B chain). The iodinated 9-mer Peptide […] was translocated in the presence of different concentrations of unlabeled competition peptides. The glycosylated peptides were recovered by Con A-Sepharose and quantitated. […] (self); (6B) competition of ^125 I-Peptide […] with Peptide […]; (6C) competition of ^125 I-Peptide […] with Peptide […]; and (6D) competition of ^125 I-Peptide […] with Peptide […]; and (6E) competition of ^125 I-Peptide […] with Peptide […].

[1] = tested on: TAP1/TAP2iso heterodimer (compared with TAP1/TAP2); test: translocation of 125I-labeled peptides into the ER of permeabilized T2 transfectants; type: cell-based, human; conditions: 125I-labeled glycosylated peptide recovered from streptolysin O permeabilized T2 transfectants; comparison in words
Method: 10 mM stock solutions of peptides were prepared in dimethyl sulfoxide. Peptides (25 μg) were directly iodinated at unique tyrosine residues with the use of chloramine T (Sigma, St. Louis, Mo.), and free iodine was removed by gel filtration using Sephadex G 10 (Pharmacia) column chromatography.
as §1

[2] = tested on: T1 cells (naturally co-express both TAP2 and TAP2iso); conditions: in words
[3] = tested on: HLA class I (A2) on T2 cells; test: restoration of surface expression of HLA class I (A2) on transfected T2 cells, flow cytometry; type: cell-based, human; conditions: for Mean fluorescence of HLA class 1 (A2) Mean ± SD / surface expression of HLA/MHC class I: T2 cells transfected with the named cDNAs; for Mean fluorescence of HLA class 1 (A2) Mean ± SD: four separate experiments, at least three stable clones; for surface expression of HLA/MHC class I: in words
Method: Plasmid DNAs were prepared using MAXI-PREP kits (Qiagen). TAP1- and TAP2-deficient T2 cells (donated by P. Cresswell, Howard Hughes Medical Institute, Yale University) (1-2×10^7 cells/ml) were transfected by electroporation with 10 μg of TAP1 and TAP2 or TAP2iso linear plasmid DNA in a 0.4-cm cuvette at 260 V and 960 μF. Subcloning and selection of transfectants were performed by culturing in the presence of hygromycin (250 μg/ml) or histidinol ([…]) for the PREP 4 and PREP8 vectors, respectively.
Immune complexes were detected with fluorescein isothiocyanate-conjugated goat anti-mouse IgG antibodies (Coulter, Hialeah, Fla.) and an Epics Elite flow cytometer (Coulter).
T2 cells were transfected with TAP1 cDNA in combination with TAP2 or TAPiso cDNAs as described above.

| Molecule | inhibition of transport of 125I-Peptide RRYQNSTEL, TAP1/TAP2iso compared with TAP1/TAP2 transfectants (TAP1/TAP2iso heterodimer) | amount of translocated peptide, TAP1/TAP2iso compared with TAP1/TAP2 [1] | transportation of test peptides (relative IC50) [2] | Mean fluorescence of HLA class 1 (A2) Mean ± SD [3] | surface expression of HLA/MHC class I [3] | surface MHC class I expression, greater than in cells transfected with TAP1-TAP2 cDNAs ([3]; transfected T2 cells) [%] |
| --- | --- | --- | --- | --- | --- | --- |
| RGFFYTPKA [Peptide RGFFYTPKA, residues 22 to 30 (human insulin B chain)] | in TAP1/TAP2iso to a greater extent |  |  |  |  |  |
| IYLGPFSPNVTL [Peptide IYLGPFSPNVTL] | markedly greater extent in TAP1/TAP2iso transfectants | transported to a greater extent by TAP/TAP2iso; also recorded: four times more efficiently by the TAP1/TAP2iso heterodimer | equal efficiency |  |  |  |
| TVDNKTRYE [Peptide TVDNKTRYE] | markedly greater extent in TAP1/TAP2 transfectants | transported to a greater extent by TAP1/TAP2; also recorded: transported more efficiently in the TAP1/TAP2 transfectant | equal efficiency |  |  |  |
| B1 |  |  |  | 5.19 ± .35 | no effect |  |
| B2 |  |  |  | 11.16 ± .50 | restored surface expression | 30 |
| B3 |  |  |  | 7.59 ± .31 | restored surface expression |  |

— patent publication US6284879A, “Transport associated protein splice variants” (The General Hospital Corporation, priority 1998, dated 2001)
